Test results as given in US6818617.

B1: Echistatin (peptide)
chain: ECESGPCCRNCKFLKEGTICKRARGDDMDDYCNGKTCDCPRNPHKGPAT
B2: EC-3 protein, heterodimeric disintegrin from Echis carinatus suchoreki venom (protein)
chain 1: NSVHPCCDPVKCEPREGEHCISGPCCRNCYFLRAGTVCKRAVGDDVDDYCSGITPDCPRNRYKGKED
chain 2: NSVHPCCDPVKCEPREGEHCISGPCCRNCKFLNAGTICKRAMLDGLNDYCTGISTDCPRNRYKGKED
B3: cyclic peptide … (peptide)
peptide: CKRAMLDGLNDYC
modifications: not checked

Columns and labels:
[1] = target: integrin α4β1 on CHO cells transfected with human α4 (human) (UniProt P13612); assay: inhibition of cell adhesion: A2 (CHOα4+) cells to immobilized VCAM-1
[2] = target: integrin α4β1 on CHO cells transfected with human α4 (human) (UniProt P13612); assay: inhibition of cell adhesion: α4B2 (CHO α4+/α5-) cells to immobilized VCAM-1
[3] = target: integrin α4β1 on Jurkat cells, P13612
[4] = target: integrin α4β1 on Jurkat cells, P13612; assay: inhibition of cell adhesion: Jurkat cells to immobilized VCAM-1

Binder	IC50 [1]	IC50 [2]	fold more active than MLDG [3]	IC50 [4]
B1	> 10 µM	> 10 µM		
B2	0.03 µM	0.03 µM		
B3			5 fold	1000 µM
